From patent publication US20050214830A1, “G protein-binding proteins and polynucleotides encoding the same” (Wyeth, priority 1998, published 2005)

Tests used:
[1] = target: T1, rat Gαi2 (Rattus norvegicus, UniProt P04897); assay: Yeast 2-hybrid (Y2H) bioassay for BBP interaction with Gαi2; conditions: BBP intracellular loop as Gal4 DNA-binding domain fusion; C-terminal region of Gα as Gal4 activation domain fusion; compared to vector
T1 construct: fusion proteins containing C-terminal regions of Gα proteins in Y2H assays; expressed in transfected cells; host or cells: yeast strain CY770, plasmid pACT2
Excerpt: (§1) Yeast 2-hybrid assays. Y2H expression plasmids were constructed in the vectors pAS2 and pACT2 (Wade Harper et al., 1993). Strain CY770 (Ozenberger and Young, 1995) served as the host for Y2H assays. Sequences encoding the BBPI intracellular loop were amplified using the oligonucleotides 5′-CCTTCC ATGGAAGTGGCAGTCGCATTGTCT [SEQ ID NO:24] plus 5′-AACACTCGAG TCAAAACCCTACAGTGCAAAAC [SEQ ID NO:25]. This product, containing BBP1 codons 185 to 217, was digested with NcoI+XhoI and cloned into pAS2 cleaved with NcoI+SaII to generate pOZ339. Sequences encoding the BBP2 intracellular loop were amplified using the oligonucleotides 5′-CCATG GCCACTTTACTCTACTCCTTCTT [SEQ ID NO:26] plus 5′-CTCGAG TCA AAT CCC MG TCC TCC MG CG [SEQ ID NO:27]. […]
(§2) The various combinations of plasmids were transformed into strain CY770 by standard protocols. […] Cells were concentrated by centrifugation, counted and 10-fold serial dilutions made from 10^4 to 10^8 cells per ml in sterile water. […]
(§3) BBP1 contains a structural motif known to be a Gα protein activating sequence in the related G protein-coupled receptors. The intracellular sequences of each BBP were expressed as fusion proteins and assayed. for physical interactions with fusion proteins containing C-terminal regions of Gα proteins in Y2H assays.

[2] = system: Human Ntera2 (Nt2) stem cells; assay: Staurosporine-induced nuclear condensation (apoptosis) in transfected Nt2 stem cells; type: cell-based
Excerpt: Mammalian expression plasmids. BBP cDNAs were modified by polymerase chain reaction (PCR) for expression from the vector pcDNA3.1 (Invitrogen Corp., Carlsbad, Calif.). BBP1 cDNA was amplified from pBBP1-fl (ATCC #98617); from the third potential translation start site to the translation stop codon, adding a 5′ EcoRI and a 3′ SaII site for cloning. The BBP1 cDNA contains three potential translation starts (codons 1, 30, and 63). The third start site was chosen for the described experiments because the first two potential initiating codons lack appropriate sequence context for efficient translation initiation (see Kozak, 1996), and based on similarities of the protein derived from the third start site with a putative BBP1 orthologue from Drosophila melanogaster (Genbank accession M941984). FIG. 1 depicts this minimal BBP1 translation product to optimize the alignment with the other BBP subtypes. The PCR primers were 5′-TGGTGAATTC GAAAGTGTCG GTCTCAACG ATG G [SEQ ID NO:36] (+strand) and 5′-CTTCGTCGAC TTATGGATATAATTGCGTTTTTC [SEQ ID NO:37] (−strand). The PCR product was digested with EcoRI+SaII and cloned into pcDNA3.1/EcoRI−XhoI to create pOZ363. BBP2 and BBP3 expression plasmids were similarily engineered. BBP2 was amplified from pOZ359 (ATCC #98851; using primers 5′-TTCCGAATTC AAGATGGTGCTAGGTGGTTGCCC [SEQ ID NO:38] (+strand) plus 5′-TTCCCTCGAG TTAGTAAACAGTGCACCAGTTGC [SEQ ID NO:39] (−strand). The PCR product was digested with EcoRI+XhoI and cloned into pcDNA3.1/EcoRI−XhoI to create pFL1 1. BBP3 was amplified from pOZ350 (ATCC #98712 using primers 5′-TTTTGAATTC GCAAG ATG GCG GGA GGG GTG CGC [SEQ ID NO:40] (+strand) plus 5′-TTGGCTCGAG CTAAATGTACAAAGAGCCATCTG [SEQ ID NO:41] (−strand). The PCR product was digested with EcoRI+XhoI and cloned into pcDNA3.1/EcoRI−XhoI to create pFL12. Mutation of the arginine codon within the ‘DRF’ motif of each BBP cDNA was performed using the QuickChange system (Stratagene Co., La Jolla, Calif.). Oligonucleotides were synthesized and purified by Genosys Biotechnologies, Inc. (The Woodlands, Tex.). The R138 codon of BBP1 in pOZ363 was changed to an alanine codon using the oligonucleotide 5′-GG TTGGGAGCAGATGCATTTTACCTTGGATACCC [SEQ ID NO: 42] and its exact reverse complement. The changed nucleotides are underlined. The R138 position of BBP1 in pOZ363 was changed to E using the oligonucleotide 5′-GG TTGGGAGCAGATGAATTTTACCTTGGATACCC [SEQ ID NO:43] and its exact reverse complement. The R167 position of BBP2 in pFL11 was changed to E using the oligonucleotide 5′-CTGGGATGTTTTGGTGTGGAT GM TTC TGT TTG GGA CAC AC [SEQ ID NO:44] and its exact reverse complement. […]

[3] = target: T2, rat Gαo (Rattus norvegicus, UniProt P59215); assay: Yeast 2-hybrid (Y2H) bioassay for BBP interaction with Gαo; conditions: BBP intracellular loop as Gal4 DNA-binding domain fusion; C-terminal region of Gα as Gal4 activation domain fusion; compared to vector
T2 construct: fusion proteins containing C-terminal regions of Gα proteins in Y2H assays; expressed in transfected cells; host or cells: yeast strain CY770, plasmid pACT2
Excerpt: as §1, §2, §3

[4] = target: T3, rat Gαs (Rattus norvegicus, UniProt P63095); assay: Yeast 2-hybrid (Y2H) bioassay for BBP interaction with Gαs; conditions: BBP intracellular loop as Gal4 DNA-binding domain fusion; C-terminal region of Gα as Gal4 activation domain fusion; compared to vector
T3 construct: fusion proteins containing C-terminal regions of Gα proteins in Y2H assays; expressed in transfected cells; host or cells: yeast strain CY770, plasmid pACT2
Excerpt: as §1, §2, §3

[5] = recombinant expression in Nt2 stem cells, 100 nM staurosporine for 3 hrs

T1 sequence (P04897 213-355 limits assumed): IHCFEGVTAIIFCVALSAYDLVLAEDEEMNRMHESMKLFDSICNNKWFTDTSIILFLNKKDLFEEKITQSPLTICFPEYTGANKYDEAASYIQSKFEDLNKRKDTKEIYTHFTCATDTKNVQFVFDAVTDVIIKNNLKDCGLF
T2 sequence (P59215 213-354 limits assumed): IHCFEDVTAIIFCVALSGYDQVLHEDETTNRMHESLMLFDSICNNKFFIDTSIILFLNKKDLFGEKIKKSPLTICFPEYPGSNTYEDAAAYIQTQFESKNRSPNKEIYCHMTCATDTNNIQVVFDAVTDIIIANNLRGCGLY
T3 sequence (P63095 235-394 limits assumed): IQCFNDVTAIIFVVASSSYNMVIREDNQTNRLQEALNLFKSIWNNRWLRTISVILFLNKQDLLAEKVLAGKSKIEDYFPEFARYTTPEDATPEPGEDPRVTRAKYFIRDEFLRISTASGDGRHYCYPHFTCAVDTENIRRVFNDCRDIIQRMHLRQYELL

Molecule	physical interaction with Gαi (Y2H growth response) [1]	cell death induced by staurosporine ([2]; Nt2 transfectants, 24 hr treatment with staurosporine (data not shown))	apoptosis (percentage of condensed nuclei among EGFP+ transfectants) ([2]; recombinant expression in Nt2 stem cells, 100 nM staurosporine for 3 hrs, controls 45%) [%]	physical interaction with Gαo (Y2H growth response) [3]	physical interaction with Gαs (Y2H growth response) [4]	suppression of staurosporine-induced nuclear condensation (antiapoptotic activity), in words [2, 5]
BBP1: novel BAP binding protein, SEQ ID NO:2; two-transmembrane protein with 'DRF' motif; expressed from pOZ363 (protein, listed as Homo sapiens) MHILKGSPNVIPRAHGQKNTRRDGTGLYPMRGPFKNLALLPFSLPLLGGGGSGSGEKVSVSKMAAAWPSGPSAPEAVTARLVGVLWFVSVTTGPWGAVATSAGGEESLKCEDLKVGQYICKDPKINDATQEPVNCTNYTAHVSCFPAPNITCKDSSGNETHFTGNEVGFFKPISCRNVNGYSYKVAVALSLFLGWLGADRFYLGYPALGLLKFCTVGFCGIGSLIDFILISMQIVGPSDGSSYIIDYYGTRLTRLSITNETFRKTQLYP	interacted with all three Gα proteins	blocked cell death	13.5	interacted with all three Gα proteins	interacted with all three Gα proteins	–
BBP3: 221 amino acid BBP family protein (short form), SEQ ID NO:6; expressed from pFL12 (protein, listed as Homo sapiens) MAGGVRPLRGLRALCRVLLFLSQFCILSGGESTEIPPYVMKCPSNGLCSRLPADCIDCTTNFSCTYGKPVTFDCAVKPSVTCVDQDFKSQKNFIINMTCRFCWQLPETDYECTNSTSCMTVSCPRQRYPANCTVRDHVHCLGNRTFPKMLYCNWTGGYKWSTALALSITLGGFGADRFYLGQWREGLGKLFSFGGLGIWTLIDVLLIGVGYVGPADGSLYI	exhibited interaction	–	–	none	strong response	suppressed the induction of nuclear condensation to the same levels as BBP1
5HT-R: 7-tm domain G protein-coupled serotonin receptor expressed as control in the apoptosis assay (protein, UniProt P08908 1-422, looked up) 5-hydroxytryptamine receptor …: MDVLSPGQGNNTTSPPAPFETGGNTTGISDVTVSYQVITSLLLGTLIFCAVLGNACVVAAIALERSLQNVANYLIGSLAVTDLMVSVLVLPMAALYQVLNKWTLGQVTCDLFIALDVLCCTSSILHLCAIALDRYWAITDPIDYVNKRTPRRAAALISLTWLIGFLISIPPMLGWRTPEDRSDPDACTISKDHGYTIYSTFGAFYIPLLLMLVLYGRIFRAARFRIRKTVKKVEKTGADTRHGASPAPQPKKSVNGESGSRNWRLGVESKAGGALCANGAVRQGDDGAALEVIEVHRVGNSKEHLPLPSEAGPTPCAPASFERKNERNAEAKRKMALARERKTVKTLGIIMGTFILCWLPFFIVALVLPFCESSCHMPTLLGAIINWLGYSNSLLNPVIYAYFNKDFQNAFKKIIKCKFCRQ	–	–	–	–	–	had no effect
